The supplement of paper PMC7877785
± gives the uncertainty stated by the source.

Assay: self-splicing fitness, log relative to wild type (ln ratio); higher = more splicing; Tetrahymena group I intron in knt gene, E. coli kanamycin selection, DiMSum; sequences stand for … in CUCUCU…GGAGGGAAAAGUUAUCAGGCAUGCACCUGGUAGCUAGUCUUUAAACCAAUAGAUUGCAUCGGUUUAAAAGGCAAGACCGUCAAAUUGCGGGAAAGGGGUCAACAGCCGUUCAGUACCAAGUCUCAGGGGAAACUUUGAGAUGGCCUUGCAAAGGGUAUGGUAAUAAGCUGACGGACAUGGUCCUAACCACGCAGCCAAGUCCUAAGUCAACAGAUCUUCUGUUGAUAUGGAUGCAGUUCACAGACUAAAUGUCGGUCGGGGAAGAUGUAUUCUUCUCAUAAGAUAUAGUCGGACCUCUCCUUAAUGGGAGCUAGCGGAUGAAGUGAUGCAACACUGGAGCCGCUGGGAACUAAUUUGUAUGCGAAAGUAUAUUGAUUAGUUUUGGAGUACUCGUGGUCG
Outline: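 Library with all eight P1ex-region intron nucleotides randomised, intron inside the knt kanamycin-resistance gene on pET-22b(+), in E. coli BL21(DE3). Cells grew overnight at 37°C or 30°C on LB agar with or without 25 μg/mL kanamycin (plus 100 μg/mL carbenicillin, 50 μM IPTG, 0.2% rhamnose), in six replicate transformations. Pooled colonies were amplicon-sequenced on Illumina HiSeq 2500. DiMSum fitness is the error-weighted combination of wild-type-normalised replicate fold changes, kanamycin versus none.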

| Sequence | self-splicing fitness (ln) (30 °C) | self-splicing fitness (ln) (37 °C) |
| --- | --- | --- |
| CUUGAGCAAUAUUACGGGUC | -3.49 ± 0.19 | -2.97 ± 0.25 |
| CUUGAGCAAUAUUACGGUUU | -2.68 ± 0.16 | -2.66 ± 0.29 |
| CUUGAGCAAUAUUACGUGCC | -2.26 ± 0.17 | -2.75 ± 0.38 |
| CUUGAGCAAUAUUACGUGGU | -2.61 ± 0.15 | -2.74 ± 0.19 |
| CUUGAGCAAUAUUACGUUGG | -2.66 ± 0.28 | -0.601 ± 0.18 |
| CUUGAGCAAUAUUACGUUUC | -3.44 ± 0.27 | -2.68 ± 0.36 |
| CUUUAGCAAUAUUACGACUU | – | -3.6 ± 0.46 |
| CUUUAGCAAUAUUACGAGUU | – | -2.96 ± 0.4 |
| CUUUAGCAAUAUUACGAUAU | -3.93 ± 0.35 | -3.25 ± 0.38 |
| CUUUAGCAAUAUUACGAUUC | -3.16 ± 0.2 | -2.6 ± 0.33 |
| CUUUAGCAAUAUUACGCAGC | – | -2.27 ± 0.33 |
| CUUUAGCAAUAUUACGCAUA | -3.68 ± 0.37 | – |
| CUUUAGCAAUAUUACGCCAA | -2.63 ± 0.37 | – |
| CUUUAGCAAUAUUACGCCUC | – | -1.99 ± 0.43 |
| CUUUAGCAAUAUUACGCUUC | – | -2.32 ± 0.38 |
| CUUUAGCAAUAUUACGGAAA | – | -2.01 ± 0.27 |
| CUUUAGCAAUAUUACGGACG | -0.38 ± 0.07 | -0.273 ± 0.11 |
| CUUUAGCAAUAUUACGGACU | -4.41 ± 0.31 | -3.71 ± 0.28 |
| CUUUAGCAAUAUUACGGAGG | -1.75 ± 0.15 | -1.29 ± 0.19 |
| CUUUAGCAAUAUUACGGUGG | -1.96 ± 0.1 | -0.665 ± 0.11 |
| CUUUAGCAAUAUUACGUCAG | -1.03 ± 0.12 | -0.4 ± 0.13 |
| CUUUAGCAAUAUUACGUGGA | -3.4 ± 0.4 | -3.58 ± 0.31 |
| CUUUAGCAAUAUUACGUUCG | -1.09 ± 0.13 | 0.499 ± 0.17 |
| CUUUAGCAAUAUUACGUUGC | -3.08 ± 0.28 | -3.55 ± 0.39 |
| GAAAAGCAAUAUUACGAAAU | -1.74 ± 0.14 | -1.09 ± 0.16 |

| Sequence | self-splicing fitness (ln) (30 °C) | self-splicing fitness (ln) (37 °C) |
| --- | --- | --- |
| GAAAAGCAAUAUUACGACCC | 0.23 ± 0.13 | -0.182 ± 0.18 |
| GAAAAGCAAUAUUACGAUAU | -1.15 ± 0.071 | -0.354 ± 0.093 |
| GAAAAGCAAUAUUACGAUUA | -0.531 ± 0.07 | -0.0202 ± 0.076 |
| GAAAAGCAAUAUUACGAUUG | -2.27 ± 0.13 | -1.52 ± 0.14 |
| GAAAAGCAAUAUUACGCGUA | -1.27 ± 0.11 | -1.15 ± 0.11 |
| GAAAAGCAAUAUUACGCGUG | -1.42 ± 0.065 | -0.104 ± 0.078 |
| GAAAAGCAAUAUUACGCUUG | -1.72 ± 0.13 | -0.918 ± 0.14 |
| GAAAAGCAAUAUUACGGCCA | -1.03 ± 0.16 | 0.81 ± 0.21 |
| GAAAAGCAAUAUUACGGCCU | -0.569 ± 0.12 | 0.296 ± 0.14 |
| GAAAAGCAAUAUUACGGUAG | -3.24 ± 0.18 | -1.53 ± 0.13 |
| GAAAAGCAAUAUUACGGUGA | -1.48 ± 0.07 | -1.07 ± 0.075 |
| GAAAAGCAAUAUUACGUAAA | -2.4 ± 0.13 | -0.992 ± 0.14 |
| GAAAAGCAAUAUUACGUAGG | -3.87 ± 0.14 | -1.96 ± 0.11 |
| GAAAAGCAAUAUUACGUGAG | -1.53 ± 0.068 | -1.47 ± 0.11 |
| GAACAGCAAUAUUACGAAUU | -1.15 ± 0.088 | -0.293 ± 0.1 |
| GAACAGCAAUAUUACGAGCC | -1.57 ± 0.14 | -1.09 ± 0.22 |
| GAACAGCAAUAUUACGAGGC | -3.07 ± 0.18 | -2.03 ± 0.14 |
| GAACAGCAAUAUUACGAGUU | -2.29 ± 0.092 | -0.935 ± 0.1 |
| GAACAGCAAUAUUACGAUAA | -0.728 ± 0.076 | -0.326 ± 0.092 |
| GAACAGCAAUAUUACGAUAC | -0.825 ± 0.065 | -0.127 ± 0.087 |
| GAACAGCAAUAUUACGAUGC | -0.47 ± 0.079 | 0.126 ± 0.12 |
| GAACAGCAAUAUUACGCAAA | -1.37 ± 0.12 | -0.529 ± 0.11 |
| GAACAGCAAUAUUACGCGUG | -0.931 ± 0.053 | -0.34 ± 0.059 |
| GAACAGCAAUAUUACGCUAA | -1.13 ± 0.062 | -0.958 ± 0.075 |
| GAACAGCAAUAUUACGCUCA | -1.23 ± 0.073 | 0.207 ± 0.1 |

| Sequence | self-splicing fitness (ln) (30 °C) | self-splicing fitness (ln) (37 °C) |
| --- | --- | --- |
| GAACAGCAAUAUUACGCUCC | -3.43 ± 0.36 | -2.34 ± 0.43 |
| GAACAGCAAUAUUACGCUUG | -0.92 ± 0.072 | -0.731 ± 0.087 |
| GAACAGCAAUAUUACGGAUG | -2.79 ± 0.16 | -2.29 ± 0.14 |
| GAACAGCAAUAUUACGGCCA | -0.58 ± 0.18 | -0.441 ± 0.22 |
| GAACAGCAAUAUUACGGCUC | -0.329 ± 0.1 | -0.256 ± 0.1 |
| GAACAGCAAUAUUACGGGCC | -2.22 ± 0.14 | -1.09 ± 0.17 |
| GAACAGCAAUAUUACGUAGA | -0.427 ± 0.049 | -0.162 ± 0.069 |
| GAACAGCAAUAUUACGUAUC | -2.83 ± 0.1 | -1.39 ± 0.12 |
| GAACAGCAAUAUUACGUCAA | -1.14 ± 0.057 | -0.166 ± 0.06 |
| GAACAGCAAUAUUACGUGCC | -2.58 ± 0.14 | -0.859 ± 0.12 |
| GAACAGCAAUAUUACGUGGC | -3.03 ± 0.17 | -2.6 ± 0.18 |
| GAACAGCAAUAUUACGUGGU | -3.12 ± 0.11 | -1.89 ± 0.09 |
| GAACAGCAAUAUUACGUGUA | -1.58 ± 0.062 | -0.438 ± 0.069 |
| GAACAGCAAUAUUACGUUGA | -1.47 ± 0.066 | -1.02 ± 0.077 |
| GAAGAGCAAUAUUACGAAGG | -2.75 ± 0.17 | -3.62 ± 0.46 |
| GAAGAGCAAUAUUACGAUGU | -2.54 ± 0.2 | -1.39 ± 0.15 |
| GAAGAGCAAUAUUACGAUUG | -2.53 ± 0.29 | -2.4 ± 0.39 |
| GAAGAGCAAUAUUACGCCCC | -1.93 ± 0.17 | -0.902 ± 0.18 |
| GAAGAGCAAUAUUACGCGGG | -3.24 ± 0.28 | -2.65 ± 0.41 |
| GAAGAGCAAUAUUACGCGUU | -3.69 ± 0.33 | -3.12 ± 0.28 |
| GAAGAGCAAUAUUACGCUAU | -2.39 ± 0.24 | -2.79 ± 0.48 |
| GAAGAGCAAUAUUACGCUCC | -2.52 ± 0.24 | – |
| GAAGAGCAAUAUUACGCUUA | -3.49 ± 0.33 | -1.3 ± 0.23 |
| GAAGAGCAAUAUUACGGAGU | -3.07 ± 0.46 | -2.47 ± 0.45 |
| GAAGAGCAAUAUUACGGGCG | -3.54 ± 0.37 | -2.84 ± 0.35 |

| Sequence | self-splicing fitness (ln) (30 °C) | self-splicing fitness (ln) (37 °C) |
| --- | --- | --- |
| GAAGAGCAAUAUUACGGUGC | – | -2.41 ± 0.21 |
| GAAGAGCAAUAUUACGGUUC | -3.53 ± 0.29 | -1.46 ± 0.22 |
| GAAGAGCAAUAUUACGUCAG | -3.58 ± 0.2 | -3.03 ± 0.35 |
| GAAGAGCAAUAUUACGUGCA | -2.38 ± 0.18 | -1.24 ± 0.2 |
| GAAGAGCAAUAUUACGUGUC | -4.75 ± 0.46 | -2.79 ± 0.27 |
| GAAGAGCAAUAUUACGUGUU | -4.18 ± 0.23 | -2.12 ± 0.18 |
| GAAGAGCAAUAUUACGUUAC | -2.82 ± 0.17 | -2.7 ± 0.2 |
| GAAUAGCAAUAUUACGAAAA | -1.52 ± 0.22 | -1.02 ± 0.2 |
| GAAUAGCAAUAUUACGAAAG | -3.86 ± 0.41 | -2.55 ± 0.27 |
| GAAUAGCAAUAUUACGAAUA | -1.07 ± 0.17 | -1.57 ± 0.22 |
| GAAUAGCAAUAUUACGACGA | -0.436 ± 0.36 | 0.000314 ± 0.24 |
| GAAUAGCAAUAUUACGAGCA | -1.94 ± 0.23 | -0.431 ± 0.14 |
| GAAUAGCAAUAUUACGAGUG | -2.01 ± 0.076 | -2.34 ± 0.13 |
| GAAUAGCAAUAUUACGCACU | -0.269 ± 0.089 | 0.18 ± 0.11 |
| GAAUAGCAAUAUUACGCAUA | -2.62 ± 0.29 | -1.08 ± 0.17 |
| GAAUAGCAAUAUUACGCCCC | -0.0149 ± 0.39 | -0.245 ± 0.42 |
| GAAUAGCAAUAUUACGCCGC | – | -1.45 ± 0.43 |
| GAAUAGCAAUAUUACGCGAC | -1.89 ± 0.2 | 0.34 ± 0.18 |
| GAAUAGCAAUAUUACGCGCC | -1.29 ± 0.24 | -1.32 ± 0.29 |
| GAAUAGCAAUAUUACGCGGA | -1.54 ± 0.15 | -1.43 ± 0.15 |
| GAAUAGCAAUAUUACGCUGG | -2.17 ± 0.33 | -0.278 ± 0.24 |
| GAAUAGCAAUAUUACGCUGU | -3.12 ± 0.21 | -2.1 ± 0.15 |
| GAAUAGCAAUAUUACGCUUC | – | -1.83 ± 0.44 |
| GAAUAGCAAUAUUACGGAUU | -0.925 ± 0.053 | -0.4 ± 0.07 |
